These results are taken from patent US20250011421A1 (GUANGDONG ANNPO BIOTECHNOLOGY, published 2025).

In assay [1] the target is T1, hTIGIT-His protein (human, UniProt Q495A1 22-141).
T1 construct: Coated on the ELISA plate at 0.5 µg/mL; also called antigen hTIGIT-his protein; not shown: His tag
T1 sequence (looked up): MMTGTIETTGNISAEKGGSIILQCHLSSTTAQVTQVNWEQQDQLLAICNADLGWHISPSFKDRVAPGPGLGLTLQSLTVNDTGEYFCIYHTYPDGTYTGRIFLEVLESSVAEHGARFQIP
Kind of assay: ELISA on hTIGIT-His, method as in Example 3. The procedure:
(§1) The hTIGIT-his protein was diluted to 0.5 μg/mL with CBS buffer, coated in an ELISA plate in 50 μL/well, and left at 4° C. overnight. The plate was washed with PBST buffer for three times, 200 μL/well, and patted dry. 1% of BSA (dissolved in PBS) was then added, 200 μL/well, and the plate was incubated at 37° C. for 2 hours. After incubation, the plate was washed with PBST for three times, 200 μL/well, and patted dry. […] 100 μL was sucked with a multi-channel pipette, transferred into the ELISA plate, and incubated at 37° C. for 1 hour. After incubation, the plate was washed with PBST for three times, 200 μL/well, and patted dry. An anti-mouse IgG antibody labeled by HRP was diluted with 1% of BSA (dissolved in PBST) (diluted at 1:5000), 100 μL/well. Incubation was performed at 37° C. for 1 hour. After incubation, the plate was washed with PBST for three times, 200 μL/well, and patted dry. 50 μL of TMB chromogen solution was added into each well for chromogenic reaction, and the reaction time was 5 minutes in the dark. After 5 minutes of incubation, hydrochloric acid stop solution was directly added to stop the reaction in 50 μL/well. Absorbances at 450 nm (OD450) were detected by the light absorption mode of a microplate reader.
Background: An ELISA detects its analyte on a solid surface through an enzyme-linked reagent.

The target of assay [2] is T2, hTIGIT on the surface of 293F-hTIGIT-short #1B1 cells (human, UniProt Q495A1 22-162, limits assumed).
T2 construct: domain: extracellular domain and transmembrane domain; It is a truncated ('short') construct without the cytoplasmic part; also called 293F-hTIGIT-short cells; 293F-hTIGIT-short #1B1 cell line
T2 sequence (looked up): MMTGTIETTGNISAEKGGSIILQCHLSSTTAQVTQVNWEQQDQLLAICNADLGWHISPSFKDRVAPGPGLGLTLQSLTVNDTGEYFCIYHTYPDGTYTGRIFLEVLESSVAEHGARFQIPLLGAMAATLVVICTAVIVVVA
The assay is described as follows: flow cytometry on cells expressing hTIGIT, method as in Example 3. The procedure: (§2) The 293F-hTIGIT-short #1B1 cell line was digested, terminated, centrifuged, resuspended and counted, and the cell density was adjusted to 4×10⁶ cells/mL. According to 50 μL/tube, 20×10⁴ cells were added into 1.5 mL EP tubes. […] The blank group was added with 150 μL of PBS as a blank control. Gentle blowing and mixing were performed, and incubation was performed on ice for 1 hour. After incubation, 500 μL of PBS was added for centrifugal washing once, centrifugation was performed at 2000 rpm for 5 minutes, and the supernatants were discarded. A fluorescent secondary antibody was added (Alexa® 488 fluorescently labeled anti-mouse IgG antibody was diluted with PBS (diluted at 1:500) and added to the corresponding tubes in 200 μL/tube), gentle blowing and mixing were performed, and incubation was performed on ice in the dark for 30 minutes. After 30 minutes of incubation, signal detection was performed with a flow cytometer.
The method was the same as that in example 3.
For orientation: A flow cytometer gives signals particle by particle.

Assay [3] concerns the target T2, hTIGIT on the surface of …. The assay is described as follows: flow cytometry competition on 293F-hTIGIT-short cells; competitor PVR (method as in Example 4).
For assay [4], the target named is T1, hTIGIT-His protein. The assay is described as follows: ELISA, hTIGIT-His coated at 0.5 µg/mL. The procedure: as §1
For assay [5], the target named is T3, mouse-derived TIGIT protein (accession number: NP_001139797.1) (mouse, UniProt P86176 29-148, limits assumed).
T3 construct: also called mouse TIGIT
T3 sequence (looked up): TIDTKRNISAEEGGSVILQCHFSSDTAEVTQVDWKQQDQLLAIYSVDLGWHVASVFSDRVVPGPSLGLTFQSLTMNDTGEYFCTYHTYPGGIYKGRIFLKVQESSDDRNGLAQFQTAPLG
Kind of assay: indirect ELISA, method as in Example 3. The method, then: as §1, with “The” for “The hTIGIT-his protein was diluted to 0.5 μg/mL with CBS buffer, coated in an ELISA plate in 50 μL/well, and left at 4° C. overnight. The”

Assay [6] concerns the target T2, hTIGIT on the surface of …. The assay is described as follows: flow cytometry on 293F-hTIGIT-short #1B1 cells. The method, then: as §2
Assay [7] deals with T2, hTIGIT on the surface of …. Kind of assay: flow cytometry competition on 293F-hTIGIT-short #1B1 cells; competitor PVR-hFc at 6 µg/mL. The procedure:
The 293F-hTIGIT-short #1B1 cell line was digested, terminated, centrifuged, resuspended and counted, and the cell density was adjusted to 4×10⁶ cells/mL. According to 50 μL/tube, 20×10⁴ cells were added into 1.5 mL EP tubes. […] 100 μL of PBS was added into the blank group. Gentle blowing and mixing were performed, and incubation was then performed on ice for 1 hour. After incubation, 500 μL of PBS was added for centrifugal washing once, centrifugation was performed at 2000 rpm for 5 minutes, and the supernatants were discarded. Alexa® 488 fluorescently labeled anti-mouse or anti-human IgG antibody was diluted with PBS (diluted at 1:500) and added to the corresponding tubes in 200 μL/tube, gentle blowing and mixing were performed, and incubation was performed on ice in the dark for 30 minutes. After 30 minutes of incubation, signal detection was performed with a flow cytometer.

Assay [8] deals with T2, hTIGIT on the surface of …. The assay is described as follows: flow cytometry competition on 293F-hTIGIT-short #1B1 cells; competitor 4.1D3 at 6 µg/mL, detected with anti-human IgG.

B1: hTIGIT humanized antibody h60H5 (antibody, human IgG1, V domains shown)
VH: QVQLVQSGAEVKKPGASVKVSCKTSGYTFTEYTMHWVRQAPGQRLEWIGGINPNNGGTSYNQKFQGRVTITVDTSASTAYMELSSLRSEDTAVYYCARSGNWDYAMDYWGQGTTVTVSS
VL: DIQMTQSPSSMSASVGDRVTITCKASQHVSTAVVWYQQKPGKAPKLLIYSASYRYTGVPDRFSGSGSGTDFTFTISSLQPEDIATYYCQQHYITPWTFGGGTKLEIKR
notes: also called 60H5-H2L1
In general, EC50 refers to the concentration that produces a half-maximal response. A high value points to weaker potency. As a reminder, the IC50 is the concentration that inhibits the measured activity by half. As to B1, the EC50 in the assay with hTIGIT-His protein [1] came out at 0.006 µg/mL; in assay [2] it was 1.57 µg/mL. The molecule further had an IC50 in assay [3] of 2 µg/mL.

B2: hTIGIT humanized antibody h51C1 (antibody, human IgG1, V domains shown)
VH: QVQLVQSGAEVKKPGASVKVSCKASGYTFTEYFIHWVRQAPGQGLEWIGWFYPGSGSIKYNERFKDRVTLTADTSISTAYMELSRLRSDDTAVYYCARHEMRYGNYVLDYWGQGTTVTVSS
VL: QAVVTQEPSLTVSPGGTVTLTCRSSTGAVTTRNYANWVQQKPGQAPRGLIGGTNNRVPGVPARFSGSLLGGKAALTLSGAQPEDEAEYYCGLWYSNHLVFGGGTKLTVLG
notes: also called 51C1-H2L2
With B2, the EC50 with hTIGIT-His protein [1] is 0.007 µg/mL; in assay [2], 2.98 µg/mL. Further, in assay [3], the IC50 was determined as 5.21 µg/mL.

B3: hTIGIT mouse-derived antibody m51C1 (antibody, V domains shown)
VH: QVQLQQSGAELVKPGASVKLSCKASGYTFTEYFIHWIKQKSGQGLEWIGWFYPGSGSIKYNERFKDKATLTADKSSSTVYMELSRLTSEDSAVYFCARHEMRYGNYVLDYWGQGTTLTVSS
VL: QAVVTQESALTTSPGETVTLTCRSSTGAVTTRNYANWVQEKPDHLFTGLIGGTNNRVPGVPARFSGSLIGDKAALTITGAQTEDEAIYFCGLWYSNHLVFGGGTKLTVLG
notes: Mouse monoclonal antibody from a hybridoma
As to B3, the EC50 amounted to 0.00396 µg/mL in the assay with hTIGIT-His protein [4] and 0.811 µg/mL in assay [6]. Also, the binding result in assay [5] is recorded as “no binding”. The figures for the IC50 in assay [7] and in assay [8] were 1.35 µg/mL and 4.08 µg/mL, respectively.
